Paper PMC6426608
Substitutions are numbered along the chain they refer to.

Key:
Assay in all cases: EMSA
Settings in all cases: EMSA: 40 ng probe in 20 ul of 10 mM Tris-HCl pH 7.4, 50 mM KCl, 5 mM MgCl2, 10% glycerol; room temperature 20 min; 6% PAGE, DNA dye
[1] = tested on: T1, RhpR (Pseudomonas savastanoi pv. phaseolicola 1448A), ORF:976030cf
T1 sequence: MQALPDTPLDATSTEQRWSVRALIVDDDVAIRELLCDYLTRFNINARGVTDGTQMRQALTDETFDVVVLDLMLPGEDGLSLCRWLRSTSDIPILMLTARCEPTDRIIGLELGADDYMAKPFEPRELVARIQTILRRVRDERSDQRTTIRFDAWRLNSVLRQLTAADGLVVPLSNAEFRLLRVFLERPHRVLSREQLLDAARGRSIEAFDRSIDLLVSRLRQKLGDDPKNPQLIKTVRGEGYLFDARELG

[2] = tested on: T2, RhpR D70E D70E (Pseudomonas savastanoi pv. phaseolicola 1448A), ORF:976030cf
T2 sequence: T1 sequence with D70E

[3] = tested on: T3, RhpR D70A D70A (Pseudomonas savastanoi pv. phaseolicola 1448A), ORF:976030cf
T3 sequence: T1 sequence with D70A

Sequence	binding [1]	binding [2]	binding [3]
TTGGATCCGACGGACCCTCGTGGGGTGATAGCCCAAGCATCCGCCGTGTGCGAGGTACAACCATTGACCTGGCGCAATGAAGCAGCCTGATAGCAGACCGTTGGTCGAAGACTCTTCGGTCTACGTGTGCAGGGTGGCTGTTCTCGAGAA (double strand) [adhB-ΔIR promoter]	no binding	–	–
TTGGATCCGGAAACACCAGATGCATGAGCCGACGACGGTCATCCGTAAAAACCATGACCAAAGTGCATTGTTGCAAAGTTCATACCTTTTTGGCAGACCCTTTGCCTGTCAGATGACATCCATGTGACGTGGGGCACTACACGGCTGCCAGACGGGTCAGATCCAGGTGTGTCGCGAGACCGCCAAGGTGAATGAGCAGGGCTCGGCTATGCTTGCTCGCGGCGTTACATATTCTTCCCCCACTGAACAGGTGACAGTCCTCGAGAA (double strand) [PSPPH_2590-p-ΔIR]	–	no binding	–
TTGGATCCGACGGACCCTCGTGGGTAGCTCGGATGCTTGGGTGATAGCCCAAGCATCCGCCGTGTGCGAGGTACAACCATTGACCTGGCGCAATGAAGCAGCCTGATAGCAGACCGTTGGTCGAAGACTCTTCGGTCTACGTGTGCAGGGTGGCTGTTCTCGAGAA (double strand) [adhB promoter]	binds	–	–
TTGGATCCGGAAACACCAGATGCATGAGCCGACGACGGTCATCCGTAAAAACCATGACCAAAGGTAACAAGTGTGCTGCTGCATTGTTGCAAAGTTCATACCTTTTTGGCAGACCCTTTGCCTGTCAGATGACATCCATGTGACGTGGGGCACTACACGGCTGCCAGACGGGTCAGATCCAGGTGTGTCGCGAGACCGCCAAGGTGAATGAGCAGGGCTCGGCTATGCTTGCTCGCGGCGTTACATATTCTTCCCCCACTGAACAGGTGACAGTCCTCGAGAA (double strand) [PSPPH_2590 promoter]	–	binds	binds more weakly
TTCTCGAGTGAAATATCGACCTGAGGAAATTGCCCCTTTGATAATAGGACTCGCATGTATAATACCGGCCAAAACCGGACCAGCCGCCATTAACTTCTCTTCATGTAACGGCCATATCACCCCCGACTTGAACCGCCTTTTACTGCGTATGTGTCTGTTTTGGTACATTTCGCGACGCTCCAGCACTGGAAACGCCCGGGATCCAA (double strand) [ccmA promoter]	binds	–	–
TTCTCGAGTGAAATATCGACCTGAGGAAATTGCCCCTTTGATAATAGGACTCGCATGTATAATACCGGCCAAAACCGGACCAGCCGCCATTAACTTCTCTTCATGTAACGGCCATATCACCCCCGACTTGAACCGCCTTTTACTGCGTATATTTCGCGACGCTCCAGCACTGGAAACGCCCGGGATCCAA (double strand) [ccmA-ΔIR promoter]	no binding	–	–
TTGGATCCAACACCCTATCCACTGAAGGTCTTGGCGGGCAAAAAACAAGCCGAGGATTATACCCGAGCTATGACCCTCGAGAA (double strand) [rpoD promoter]	binds	–	–
